# Tested on: PPO-deficient BT3 E. coli (ΔPPO)
# Experiment: PPO-inhibiting herbicide tolerance test of PPO variants in E. coli (growth on herbicide-containing LB agar)
# Format: cell-based
# Conditions: CyPPO19 variants in BT3 (ΔPPO) E. coli; LB agar with 0 to 2,000 μM herbicide, 37° C., dark, 16-20 hours
# Procedure, shortened: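 Transformants were grown to OD600 0.5–1, adjusted to OD600=0.5 and spotted as 10-fold dilutions on LB agar with ampicillin (100 μg/mL) and 0 to 2,000 μM herbicide. Plates were kept at 37° C in the dark for 16-20 hours; growth was scored relative to wild type, one '+' per 10-fold resistance.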
Molecule,"tolerance level relative to wild type, Carfentrazone","tolerance level relative to wild type, Flumioxazin","tolerance level relative to wild type, Fomesafen","tolerance level relative to wild type, Oxyfluorfen","tolerance level relative to wild type, Saflufenacil","tolerance level relative to wild type, Sulfentrazone","tolerance level relative to wild type, Tiafenacil"
"CyPPO19 I408R + F360L: variant of CyPPO19 PPO protein (SEQ ID NO: 1) (protein, Synthetic_PPO of Thermosynechococcus elongatus PKUAC-SCTE542 (comprising GenBank No. CP032152.1)) MSEVDVAIVGGGLSGLSLAWRLQQSAPQYSVVLLEASDRLGGNITTQTAEGFVWELGPNSFAPTPALLQLIAEVGLQSELIRGDRHLPRYIYWRGQLYPLQPTRPLALATSNLLSPWGKVRAALGALGFVPPYLGSGDESVNSFFRRHLGQEVAERLVAPFVSGVYAGDPQQLSAAAAFRRIAQLEKLGGGLIAGALHLRRQQAPKPKPPTSVQMRPGELGSFKEGLAALPRAIAQQLKAPIHLQTPVQEITPDPKGGYLLRSGEQTWRARSVVLATPAYQTAELVAPFQPAIARVLATIPYPTVACVVLAYPAGLGRSVRPGFGVLIPRSQGIRTLGTIWSSCLFPQRTPAGWQVFTSLIGGATDPDLASLSEEAIVQQVQQDLNRLLDLPAAKARLLGMKVWRRARPQYMVGYPEQWQQVTHALSQTPGLFLCSNYAEGVALGDRVEHGNRTAAAVAAYLSGGQP",+ (‘+’ per each 10-fold resistance),+ (‘+’ per each 10-fold resistance),+ (‘+’ per each 10-fold resistance),+ (‘+’ per each 10-fold resistance),+ (‘+’ per each 10-fold resistance),+ (‘+’ per each 10-fold resistance),++ (‘+’ per each 10-fold resistance)
"CyPPO19 R89A + V165C + F360V: variant of CyPPO19 PPO protein (SEQ ID NO: 1) (protein, Synthetic_PPO of Thermosynechococcus elongatus PKUAC-SCTE542 (comprising GenBank No. CP032152.1)) MSEVDVAIVGGGLSGLSLAWRLQQSAPQYSVVLLEASDRLGGNITTQTAEGFVWELGPNSFAPTPALLQLIAEVGLQSELIRGDRHLPAYIYWRGQLYPLQPTRPLALATSNLLSPWGKVRAALGALGFVPPYLGSGDESVNSFFRRHLGQEVAERLVAPFVSGCYAGDPQQLSAAAAFRRIAQLEKLGGGLIAGALHLRRQQAPKPKPPTSVQMRPGELGSFKEGLAALPRAIAQQLKAPIHLQTPVQEITPDPKGGYLLRSGEQTWRARSVVLATPAYQTAELVAPFQPAIARVLATIPYPTVACVVLAYPAGLGRSVRPGFGVLIPRSQGIRTLGTIWSSCLFPQRTPAGWQVFTSVIGGATDPDLASLSEEAIVQQVQQDLNRLLDLPAAKARLLGMKVWRRAIPQYMVGYPEQWQQVTHALSQTPGLFLCSNYAEGVALGDRVEHGNRTAAAVAAYLSGGQP",+ (‘+’ per each 10-fold resistance),++++ (‘+’ per each 10-fold resistance),+ (‘+’ per each 10-fold resistance),+ (‘+’ per each 10-fold resistance),++++ (‘+’ per each 10-fold resistance),+++ (‘+’ per each 10-fold resistance),++++ (‘+’ per each 10-fold resistance)
"CyPPO19 I408W + F360T: variant of CyPPO19 PPO protein (SEQ ID NO: 1) (protein, Synthetic_PPO of Thermosynechococcus elongatus PKUAC-SCTE542 (comprising GenBank No. CP032152.1)) MSEVDVAIVGGGLSGLSLAWRLQQSAPQYSVVLLEASDRLGGNITTQTAEGFVWELGPNSFAPTPALLQLIAEVGLQSELIRGDRHLPRYIYWRGQLYPLQPTRPLALATSNLLSPWGKVRAALGALGFVPPYLGSGDESVNSFFRRHLGQEVAERLVAPFVSGVYAGDPQQLSAAAAFRRIAQLEKLGGGLIAGALHLRRQQAPKPKPPTSVQMRPGELGSFKEGLAALPRAIAQQLKAPIHLQTPVQEITPDPKGGYLLRSGEQTWRARSVVLATPAYQTAELVAPFQPAIARVLATIPYPTVACVVLAYPAGLGRSVRPGFGVLIPRSQGIRTLGTIWSSCLFPQRTPAGWQVFTSTIGGATDPDLASLSEEAIVQQVQQDLNRLLDLPAAKARLLGMKVWRRAWPQYMVGYPEQWQQVTHALSQTPGLFLCSNYAEGVALGDRVEHGNRTAAAVAAYLSGGQP",+ (‘+’ per each 10-fold resistance),+ (‘+’ per each 10-fold resistance),+ (‘+’ per each 10-fold resistance),+ (‘+’ per each 10-fold resistance),++ (‘+’ per each 10-fold resistance),+ (‘+’ per each 10-fold resistance),++ (‘+’ per each 10-fold resistance)
"CyPPO19 R89A + V165S + F360M: variant of CyPPO19 PPO protein (SEQ ID NO: 1) (protein, Synthetic_PPO of Thermosynechococcus elongatus PKUAC-SCTE542 (comprising GenBank No. CP032152.1)) MSEVDVAIVGGGLSGLSLAWRLQQSAPQYSVVLLEASDRLGGNITTQTAEGFVWELGPNSFAPTPALLQLIAEVGLQSELIRGDRHLPAYIYWRGQLYPLQPTRPLALATSNLLSPWGKVRAALGALGFVPPYLGSGDESVNSFFRRHLGQEVAERLVAPFVSGSYAGDPQQLSAAAAFRRIAQLEKLGGGLIAGALHLRRQQAPKPKPPTSVQMRPGELGSFKEGLAALPRAIAQQLKAPIHLQTPVQEITPDPKGGYLLRSGEQTWRARSVVLATPAYQTAELVAPFQPAIARVLATIPYPTVACVVLAYPAGLGRSVRPGFGVLIPRSQGIRTLGTIWSSCLFPQRTPAGWQVFTSMIGGATDPDLASLSEEAIVQQVQQDLNRLLDLPAAKARLLGMKVWRRAIPQYMVGYPEQWQQVTHALSQTPGLFLCSNYAEGVALGDRVEHGNRTAAAVAAYLSGGQP",+ (‘+’ per each 10-fold resistance),++++ (‘+’ per each 10-fold resistance),+++ (‘+’ per each 10-fold resistance),+++ (‘+’ per each 10-fold resistance),++++ (‘+’ per each 10-fold resistance),+++ (‘+’ per each 10-fold resistance),++++ (‘+’ per each 10-fold resistance)
"CyPPO19 R89A + V165C + F360I: variant of CyPPO19 PPO protein (SEQ ID NO: 1) (protein, Synthetic_PPO of Thermosynechococcus elongatus PKUAC-SCTE542 (comprising GenBank No. CP032152.1)) MSEVDVAIVGGGLSGLSLAWRLQQSAPQYSVVLLEASDRLGGNITTQTAEGFVWELGPNSFAPTPALLQLIAEVGLQSELIRGDRHLPAYIYWRGQLYPLQPTRPLALATSNLLSPWGKVRAALGALGFVPPYLGSGDESVNSFFRRHLGQEVAERLVAPFVSGCYAGDPQQLSAAAAFRRIAQLEKLGGGLIAGALHLRRQQAPKPKPPTSVQMRPGELGSFKEGLAALPRAIAQQLKAPIHLQTPVQEITPDPKGGYLLRSGEQTWRARSVVLATPAYQTAELVAPFQPAIARVLATIPYPTVACVVLAYPAGLGRSVRPGFGVLIPRSQGIRTLGTIWSSCLFPQRTPAGWQVFTSIIGGATDPDLASLSEEAIVQQVQQDLNRLLDLPAAKARLLGMKVWRRAIPQYMVGYPEQWQQVTHALSQTPGLFLCSNYAEGVALGDRVEHGNRTAAAVAAYLSGGQP",+ (‘+’ per each 10-fold resistance),++++ (‘+’ per each 10-fold resistance),++ (‘+’ per each 10-fold resistance),++ (‘+’ per each 10-fold resistance),++++ (‘+’ per each 10-fold resistance),+++ (‘+’ per each 10-fold resistance),++++ (‘+’ per each 10-fold resistance)
"CyPPO19 R89A + A167I + F360V: variant of CyPPO19 PPO protein (SEQ ID NO: 1) (protein, Synthetic_PPO of Thermosynechococcus elongatus PKUAC-SCTE542 (comprising GenBank No. CP032152.1)) MSEVDVAIVGGGLSGLSLAWRLQQSAPQYSVVLLEASDRLGGNITTQTAEGFVWELGPNSFAPTPALLQLIAEVGLQSELIRGDRHLPAYIYWRGQLYPLQPTRPLALATSNLLSPWGKVRAALGALGFVPPYLGSGDESVNSFFRRHLGQEVAERLVAPFVSGVYIGDPQQLSAAAAFRRIAQLEKLGGGLIAGALHLRRQQAPKPKPPTSVQMRPGELGSFKEGLAALPRAIAQQLKAPIHLQTPVQEITPDPKGGYLLRSGEQTWRARSVVLATPAYQTAELVAPFQPAIARVLATIPYPTVACVVLAYPAGLGRSVRPGFGVLIPRSQGIRTLGTIWSSCLFPQRTPAGWQVFTSVIGGATDPDLASLSEEAIVQQVQQDLNRLLDLPAAKARLLGMKVWRRAIPQYMVGYPEQWQQVTHALSQTPGLFLCSNYAEGVALGDRVEHGNRTAAAVAAYLSGGQP",+ (‘+’ per each 10-fold resistance),+++++ (until ‘+++++’ as maximal resistance),+++ (‘+’ per each 10-fold resistance),+++ (‘+’ per each 10-fold resistance),+++++ (until ‘+++++’ as maximal resistance),+++++ (until ‘+++++’ as maximal resistance),+++++ (until ‘+++++’ as maximal resistance)

# Reference: patent US12698507B2, “Methods and compositions for conferring and/or enhancing herbicide tolerance using protoporphyrinogen IX oxidase of various cyanobacteria or variant thereof” (FarmHannong Co., Ltd., priority 2019, dated 2026)
